# Experimental data: publication PMC11544104
# Columns and labels:
# [1] = system: BAF complex, FLAG-DPF2 WT (293T) (human); experiment: pull-down; conditions: histone H3K56ac (recombinant Xenopus laevis octamer)
# [2] = target: H3K56ac-mononucleosome assembled with 35N35 DNA (Xenopus laevis); experiment: pull-down
Substance,binding signal (normalized bound DPF2 (reference)) [1],fold reduction of the preferential interaction against the WT complex [2] [fold]
"35N35 mononucleosome, H3K56ac",1,
BAF complex containing DPF2 C330W (from UniProt Q92785;P51532),,5
BAF complex containing DPF2 R350H (from UniProt Q92785;P51532),,5
BAF complex containing DPF2 W369R (from UniProt Q92785;P51532),,5
